Measurements reported in publication PMC10173608.
Where “and” joins values, the source holds several entries; their conditions need not be identical. Equal values may be shown once.

Target: GFP-tagged TDP-43-ΔNLS-KQ (GFP-TDP43-ΔNLS-K145Q, pTX066) (human) (UniProt Q13148)
Test: non-reducing SDS-PAGE and immunoblot of immunoprecipitated aggregates

stoichiometry N: 2 and 4
Substance: GFP-tagged TDP-43-ΔNLS-KQ (GFP-TDP43-ΔNLS-K145Q, pTX066) (from UniProt Q13148 1-414) (natural protein)
